The text below walks through data of article PMC4452428 (Biotechnology and bioengineering, 2015).

For data set [1], the system named is MHC II alleles DRB1*0101, 0401, 0701, and 1501. Conditions: IC50≥100 μM; average per protein for designs.
The nature of data set [2]: Michaelis-Menten kinetics, colorimetric nitrocefin assay. As to conditions: nitrocefin 10 μM to 500 μM, 96-well, triplicate. Type of data set: biochemical.

B1: P99 beta-lactamase (protein, UniProt P05364 21-381, looked up)
Beta-lactamase: TPVSEKQLAEVVANTITPLMKAQSVPGMAVAVIYQGKPHYYTFGKADIAANKPVTPQTLFELGSISKTFTGVLGGDAIARGEISLDDAVTRYWPQLTGKQWQGIRMLDLATYTAGGLPLQVPDEVTDNASLLRFYQNWQPQWKPGTTRLYANASIGLFGALAVKPSGMPYEQAMTTRVLKPLKLDHTWINVPKAEEAHYAWGYRDGKAVRVSPGMLDAQAYGVKTNVQDMANWVMANMAPENVADASLKQGIALAQSRYWRIGSMYQGLGWEMLNWPVEANTVVEGSDSKVALAPLPVAEVNPPAPPVKASWVHKTGSTGGFGSYVAFIPEKQIGIVMLANTSYPNPARVEAAYHILEALQ
For orientation: Km means the concentration of substrate that gives half-maximal velocity. The term kcat denotes the number of substrate molecules converted per active site and unit of time at saturation. Consider B1, for which the “non-binding peptides out of 36” value in data set [1] is given as 13/36. Also, the Km in data set [2] (non-linear regression, biological duplicate) stood at 80 ± 10 µM. Moreover, the kcat in data set [2] (non-linear regression, enzymes purified and assayed in biological duplicate) is 360 ± 20 s⁻¹. Moreover, in data set [2] (biological duplicate), the kcat/Km is 4.6 ± 0.7 s^−1μM^−1.
